Source: the supplement of paper PMC5998384

How the values were obtained:
[1] = tested on: HeLa Kyoto; assay: solubility in G1/S (NP-40 vs SDS abundance) (log2 ratio); higher = more soluble; conditions: cell cycle stage: G1/S
[2] = tested on: HeLa Kyoto; assay: melting temperature (median over replicates), in situ; higher = more thermally stable
[3] = tested on: HeLa Kyoto; assay: solubility change mitosis vs G1/S (difference of NP-40 vs SDS log2 ratios) (log2 ratio difference); higher = more soluble in mitosis
[4] = tested on: HeLa Kyoto; assay: thermal stability score vs G1/S (z-score of summed log2 fold changes over temperatures); higher = more thermally stable than in G1/S
[5] = cell cycle stage: early G1 (4.5 h after nocodazole release)
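For melting temperature (median over replicates), in situ in this document: HeLa Kyoto cells synchronized by double thymidine or nocodazole block, proteins quantified by TMT10plex mass spectrometry, three independent biological replicates.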
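For solubility change mitosis vs G1/S (difference of NP-40 vs SDS log2 ratios) in this document: synchronized HeLa Kyoto cells (double thymidine block for G1/S, nocodazole release for mitosis), protein amounts in NP-40 versus SDS lysates quantified by mass spectrometry, three biological replicates.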
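For solubility in G1/S (NP-40 vs SDS abundance) in this document: HeLa Kyoto cells arrested at G1/S by double thymidine block, proteins quantified by TMT10plex mass spectrometry in mild NP-40 versus SDS extracts, three biological replicates.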
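For thermal stability score vs G1/S (z-score of summed log2 fold changes over temperatures) in this document: synchronized HeLa Kyoto cells, proteins quantified by TMT10plex mass spectrometry, three biological replicates, mitosis taken 0.5 h after nocodazole release, G1/S directly after double thymidine block.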

Substance	solubility in G1/S (log2) [1]	melting temperature ([2]; cell cycle stage: G1/S) [°C]	melting temperature ([2]; cell cycle stage: mitosis) [°C]	solubility change mitosis (log2) [3]	thermal stability score [4, 5]	thermal stability score ([4]; cell cycle stage: mitosis)
MPAVLGFEGSANKIGVGVVRDGKVLANPRRTYVTPPGTGFLPGDTARHHRAVILDLLQEALTESGLTSQDIDCIAYTKGPGMGAPLVSVAVVARTVAQLWNKPLVGVNHCIGHIEMGRLITGATSPTVLYVSGGNTQVIAYSEHRYRIFGETIDIAVGNCLDRFARVLKISNDPSPGYNIEQMAKRGKKLVELPYTVKGMDVSFSGILSFIEDVAHRMLATGECTPEDLCFSLQETVFAMLVEITERAMAHCGSQEALIVGGVGCNVRLQEMMATMCQERGARLFATDERFCIDNGAMIAQAGWEMFRAGHRTPLSDSGVTQRYRTDEVEVTWRD [OSGEP]	0.0103	55.5	55.4	-0.136	0.00035	-1.39
MSLADELLADLEEAAEEEEGGSYGEEEEEPAIEDVQEETQLDLSGDSVKTIAKLWDSKMFAEIMMKIEEYISKQAKASEVMGPVEAAPEYRVIVDANNLTVEIENELNIIHKFIRDKYSKRFPELESLVPNALDYIRTVKELGNSLDKCKNNENLQQILTNATIMVVSVTASTTQGQQLSEEELERLEEACDMALELNASKHRIYEYVESRMSFIAPNLSIIIGASTAAKIMGVAGGLTNLSKMPACNIMLLGAQRKTLSGFSSTSVLPHTGYIYHSDIVQSLPPDLRRKAARLVAAKCTLAARVDSFHESTEGKVGYELKDEIERKFDKWQEPPPVKQVKPLPAPLDGQRKKRGGRRYRKMKERLGLTEIRKQANRMSFGEIEEDAYQEDLGFSLGHLGKSGSGRVRQTQVNEATKARISKTLQRTLQKQSVVYGGKSTIRDRSSGTASSVAFTPLQGLEIVNPQAAEKKVAEANQKYFSSMAEFLKVKGEKSGLMST [PRPF31]	-0.0726	46.8	48.3	0.246	2.25	7.81
MDDPDCDSTWEEDEEDAEDAEDEDCEDGEAAGARDADAGDEDEESEEPRAARPSSFQSRMTGSRNWRATRDMCRYRHNYPDLVERDCNGDTPNLSFYRNEIRFLPNGCFIEDILQNWTDNYDLLEDNHSYIQWLFPLREPGVNWHAKPLTLREVEVFKSSQEIQERLVRAYELMLGFYGIRLEDRGTGTVGRAQNYQKRFQNLNWRSHNNLRITRILKSLGELGLEHFQAPLVRFFLEETLVRRELPGVRQSALDYFMFAVRCRHQRRQLVHFAWEHFRPRCKFVWGPQDKLRRFKPSSLPHPLEGSRKVEEEGSPGDPDHEASTQGRTCGPEHSKGGGRVDEGPQPRSVEPQDAGPLERSQGDEAGGHGEDRPEPLSPKESKKRKLELSRREQPPTEPGPQSASEVEKIALNLEGCALSQGSLRTGTQEVGGQDPGEAVQPCRQPLGARVADKVRKRRKVDEGAGDSAAVASGGAQTLALAGSPAPSGHPKAGHSENGVEEDTEGRTGPKEGTPGSPSETPGPSPAGPAGDEPAESPSETPGPRPAGPAGDEPAESPSETPGPRPAGPAGDEPAESPSETPGPSPAGPTRDEPAESPSETPGPRPAGPAGDEPAESPSETPGPRPAGPAGDEPAESPSETPGPSPAGPTRDEPAKAGEAAELQDAEVESSAKSGKP [OGFR]	0.423	48.1	49.6	-0.0617	1.46	3.46
CLPX	0.103	50.6	50.2	-0.0641	2.55	0.77
ZNF638	-0.709	48.1	50.2	0.363	1.39	4.74
MAAPRAGRGAGWSLRAWRALGGIRWGRRPRLTPDLRALLTSGTSDPRARVTYGTPSLWARLSVGVTEPRACLTSGTPGPRAQLTAVTPDTRTREASENSGTRSRAWLAVALGAGGAVLLLLWGGGRGPPAVLAAVPSPPPASPRSQYNFIADVVEKTAPAVVYIEILDRHPFLGREVPISNGSGFVVAADGLIVTNAHVVADRRRVRVRLLSGDTYEAVVTAVDPVADIATLRIQTKEPLPTLPLGRSADVRQGEFVVAMGSPFALQNTITSGIVSSAQRPARDLGLPQTNVEYIQTDAAIDFGNSGGPLVNLDGEVIGVNTMKVTAGISFAIPSDRLREFLHRGEKKNSSSGISGSQRRYIGVMMLTLSPSILAELQLREPSFPDVQHGVLIHKVILGSPAHRAGLRPGDVILAIGEQMVQNAEDVYEAVRTQSQLAVQIRRGRETLTLYVTPEVTE [HTRA2]	0.168	56.9	56.5	0.028	-2.4	-3.14
MASGNARIGKPAPDFKATAVVDGAFKEVKLSDYKGKYVVLFFYPLDFTFVCPTEIIAFSNRAEDFRKLGCEVLGVSVDSQFTHLAWINTPRKEGGLGPLNIPLLADVTRRLSEDYGVLKTDEGIAYRGLFIIDGKGVLRQITVNDLPVGRSVDEALRLVQAFQYTDEHGEVCPAGWKPGSDTIKPNVDDSKEYFSKHN [PRDX2]	0.354	55	55.1	0.0464	-3.24	-3.32
MALSCTLNRYLLLMAQEHLEFRLPEIKSLLLLFGGQFASSQETYGKSPFWILSIPSEDIARNLMKRTVCAKSIFELWGHGQSPEELYSSLKNYPVEKMVPFLHSDSTYKIKIHTFNKTLTQEEKIKRIDALEFLPFEGKVNLKKPQHVFSVLEDYGLDPNCIPENPHNIYFGRWIADGQRELIESYSVKKRHFIGNTSMDAGLSFIMANHGKVKENDIVFDPFVGTGGLLIACAHFGAYVYGTDIDYNTVHGLGKATRKNQKWRGPDENIRANLRQYGLEKYYLDVLVSDASKPSWRKGTYFDAIITDPPYGIRESTRRTGSQKEIPKGIEKWEKCPESHVPVSLSYHLSDMFLDLLNFAAETLVLGGRLVYWLPVYTPEYTEEMVPWHPCLELVSNCEQKLSSHTSRRLITMEKVKKFENRDQYSHLLSDHFLPYQGHNSFREKYFSGVTKRIAKEEKSTQE [TRMT11]	0.171	54.4	53.5	-0.155	0.848	-0.0136
MTKSNGEEPKMGGRMERFQQGVRKRTLLAKKKVQNITKEDVKSYLFRNAFVLLTVTAVIVGTILGFTLRPYRMSYREVKYFSFPGELLMRMLQMLVLPLIISSLVTGMAALDSKASGKMGMRAVVYYMTTTIIAVVIGIIIVIIIHPGKGTKENMHREGKIVRVTAADAFLDLIRNMFPPNLVEACFKQFKTNYEKRSFKVPIQANETLVGAVINNVSEAMETLTRITEELVPVPGSVNGVNALGLVVFSMCFGFVIGNMKEQGQALREFFDSLNEAIMRLVAVIMWYAPVGILFLIAGKIVEMEDMGVIGGQLAMYTVTVIVGLLIHAVIVLPLLYFLVTRKNPWVFIGGLLQALITALGTSSSSATLPITFKCLEENNGVDKRVTRFVLPVGATINMDGTALYEALAAIFIAQVNNFELNFGQIITISITATAASIGAAGIPQAGLVTMVIVLTSVGLPTDDITLIIAVDWFLDRLRTTTNVLGDSLGAGIVEHLSRHELKNRDVEMGNSVIEENEMKKPYQLIAQDNETEKPIDSETKM [SLC1A3]	-0.131	61.8	58	0.0284	-4.57	-5.19
MAQTPAFDKPKVELHVHLDGSIKPETILYYGRRRGIALPANTAEGLLNVIGMDKPLTLPDFLAKFDYYMPAIAGCREAIKRIAYEFVEMKAKEGVVYVEVRYSPHLLANSKVEPIPWNQAEGDLTPDEVVALVGQGLQEGERDFGVKARSILCCMRHQPNWSPKVVELCKKYQQQTVVAIDLAGDETIPGSSLLPGHVQAYQEAVKSGIHRTVHAGEVGSAEVVKEAVDILKTERLGHGYHTLEDQALYNRLRQENMHFEICPWSSYLTGAWKPDTEHAVIRLKNDQANYSLNTDDPLIFKSTLDTDYQMTKRDMGFTEEEFKRLNINAAKSSFLPEDEKRELLDLLYKAYGMPPSASAGQNL [ADA]	0.319	57.9	59.2	-0.0197	-1.89	-1.32
MAAGKSGGSAGEITFLEALARSESKRDGGFKNNWSFDHEEESEGDTDKDGTNLLSVDEDEDSETSKGKKLNRRSEIVANSSGEFILKTYVRRNKSESFKTLKGNPIGLNMLSNNKKLSENTQNTSLCSGTVVHGRRFHHAHAQIPVVKTAAQSSLDRKERKEYPPHVQKVEINPVRLSRLQGVERIMKKTEESESQVEPEIKRKVQQKRHCSTYQPTPPLSPASKKCLTHLEDLQRNCRQAITLNESTGPLLRTSIHQNSGGQKSQNTGLTTKKFYGNNVEKVPIDIIVNCDDSKHTYLQTNGKVILPGAKIPKITNLKERKTSLSDLNDPIILSSDDDDDNDRTNRRESISPQPADSACSSPAPSTGKVEAALNENTCRAERELRSIPEDSELNTVTLPRKARMKDQFGNSIINTPLKRRKVFSQEPPDALALSCQSSFDSVILNCRSIRVGTLFRLLIEPVIFCLDFIKIQLDEPDHDPVEIILNTSDLTKCEWCNVRKLPVVFLQAIPAVYQKLSIQLQMNKEDKVWNDCKGVNKLTNLEEQYIILIFQNGLDPPANMVFESIINEIGIKNNISNFFAKIPFEEANGRLVACTRTYEESIKGSCGQKENKIKTVSFESKIQLRSKQEFQFFDEEEETGENHTIFIGPVEKLIVYPPPPAKGGISVTNEDLHCLNEGEFLNDVIIDFYLKYLVLEKLKKEDADRIHIFSSFFYKRLNQRERRNHETTNLSIQQKRHGRVKTWTRHVDIFEKDFIFVPLNEAAHWFLAVVCFPGLEKPKYEPNPHYHENAVIQKCSTVEDSCISSSASEMESCSQNSSAKPVIKKMLNKKHCIAVIDSNPGQEESDPRYKRNICSVKYSVKKINHTASENEEFNKGESTSQKVADRTKSENGLQNESLSSTHHTDGLSKIRLNYSDESPEAGKMLEDELVDFSEDQDNQDDSSDDGFLADDNCSSEIGQWHLKPTICKQPCILLMDSLRGPSRSNVVKILREYLEVEWEVKKGSKRSFSKDVMKGSNPKVPQQNNFSDCGVYVLQYVESFFENPILSFELPMNLANWFPPPRMRTKREEIRNIILKLQEDQSKEKRKHKDTYSTEAPLGEGTEQYVNSISD [SENP6]	-0.261	51.8	52.5	0.144	-0.65	0.269
DOCK10	-0.189	52.3	51.8	-0.143	-1.12	-0.873
MAQKKYLQAKLTQFLREDRIQLWKPPYTDENKKVGLALKDLAKQYSDRLECCENEVEKVIEEIRCKAIERGTGNDNYRTTGIATIEVFLPPRLKKDRKNLLETRLHITGRELRSKIAETFGLQENYIKIVINKKQLQLGKTLEEQGVAHNVKAMVLELKQSEEDARKNFQLEEEEQNEAKLKEKQIQRTKRGLEILAKRAAETVVDPEMTPYLDIANQTGRSIRIPPSERKALMLAMGYHEKGRAFLKRKEYGIALPCLLDADKYFCECCRELLDTVDNYAVLQLDIVWCYFRLEQLECLDDAEKKLNLAQKCFKNCYGENHQRLVHIKGNCGKEKVLFLRLYLLQGIRNYHSGNDVEAYEYLNKARQLFKELYIDPSKVDNLLQLGFTAQEARLGLRACDGNVDHAATHITNRREELAQIRKEEKEKKRRRLENIRFLKGMGYSTHAAQQVLHAASGNLDEALKILLSNPQMWWLNDSNPETDNRQESPSQENIDRLVYMGFDALVAEAALRVFRGNVQLAAQTLAHNGGSLPPELPLSPEDSLSPPATSPSDSAGTSSASTDEDMETEAVNEILEDIPEHEEDYLDSTLEDEEIIIAEYLSYVENRKSATKKN [NUB1]	-0.169	47.9	50.3	-0.203	1.06	1.85
MSSDFEGYEQDFAVLTAEITSKIARVPRLPPDEKKQMVANVEKQLEEAKELLEQMDLEVREIPPQSRGMYSNRMRSYKQEMGKLETDFKRSRIAYSDEVRNELLGDDGNSSENQRAHLLDNTERLERSSRRLEAGYQIAVETEQIGQEMLENLSHDREKIQRARERLRETDANLGKSSRILTGMLRRIIQNRILLVILGIIVVITILMAITFSVRRH [VTI1A]	0.0215	55.6	55.8	-0.165	-4.18	-3.25
